In patent publication US20230313187A1, “MODIFICATIONS OF MAMMALIAN CELLS USING ARTIFICIAL MICRO-RNA TO ALTER THEIR PROPERTIES AND THE COMPOSITIONS OF THEIR PRODUCTS” (DNA TWOPOINTO INC., priority 2020, published 2023):

System: Cricetulus griseus dihydrofolate reductase mRNA
Experiment: Growth of a clonal cell line with amiRNA targeted toward dihydrofolate reductase with/without HT and MTX
Format: cell-based
Details: 50 nM MTX, no HT
Description: A monoclonal line (C426) was derived from the pool transfected with the transposon comprising multi-hairpin amiRNA with nucleotide sequence SEQ ID NO: 210 and selected with 800 μg/ml G418 described in Section 6.5.1. Growth of this clonal cell line in the presence and absence of HT and in the absence of HT and presence of 50 nM MTX was compared with the growth of a control cell line from which C426 was derived.
Cells were transferred to Sigma Advanced Fed Batch media with 5 uM glutamine and to an initial a density of 0.3×10^6 live cells/ml. Parallel cultures were grown (a) in the presence of HT, (b) in the absence of HT and (c) in the absence of HT and the presence of 50 nM MTX. At day 4, all cultures were diluted to adjust viable cell densities to 0.3×10^6 cell/ml. At day 8, all cultures were again diluted to adjust viable cell densities to 0.3×10^6 cell/ml. At day 13, all cultures except for the culture of C426 with 50 nM MTX were again diluted to adjust viable cell densities to 0.3×10^6 cell/ml.
Table 12. Growth of a clonal cell line with amiRNA targeted toward dihydrofolate reductase. […] Viable cell densities were measured at various times after the beginning of the experiment: the cell line is shown in column A, the presence of HT is indicated in column B and the concentration of MTX is shown in column C. […]

B1: SEQ ID NO: 210: three-hairpin amiRNA, guides SEQ ID NOs 82, 83, 84 complementary to Cricetulus griseus dihydrofolate reductase mRNA (nucleic acid)
chain: ATCTGATCTTCTGAAGAAAATATATTTCTTTTTATTCATAGCTCTTAACTAGTGGTGATAGCAATGTCAGCAGTGCCTTAACTCATAGATCTAAAGCCAAGTGAAGCCACAGATGTTGGCTTTAGCTCTATGAGTTCAAGTAAGGTTGACCATACTCTACTCTAGAGTTGTGTTTTAATGTATATTAATGTTACTAATGTGTTTACTAGTGGTGATAGCAATGTCAGCAGTGCCTTAGAGTACAACAGTTGCCCAGGGTGAAGCCACAGATGCCTGGGCAACCGTTGTACTCTCAAGTAAGGTTGACCATACTCTACTCTAGGTTATTTTTAGTATGATTCTGTAAAAATGAATTAATACTAACTAGTGGTGATAGCAATGTCAGCAGTGCCTTTGTTTAGAATTATACAGGGGCGTGAAGCCACAGATGGCCCCTGTATCATTCTAAACACAAGTAAGGTTGACCATACTCTACTCTAGTCAGTTTTATTGATAGTCTTTTCAGTATTATTGATAATCTT
effect of MTX in the growth media on growth: sensitizes cells to the presence of MTX in the growth media
